{"source": "patent US20240392003A1", "about": "(NUMAB THERAPEUTICS, published 2024)", "binders": {"B1": {"name": "PRO2060 (scFv, V domains shown)", "VH": "QSQVVESGGGLVQPGGSLRLSCAVSGFDLSSYAVSWVRQAPGKGLEWIGIIYPRANTYYASWAKGRFTISKDNSKNTVYLQMNSLRAEDTAVYFCARDRYDSGAYLYTTYFNLWGQGTLVTVSS", "VL": "DVQMTQSPSSLSASVGDRVTITCRASENIYSGLAWYQQKPGKPPKLLIYRASTLASGVSSRFSGSGSGTDFTLTISSLQPEDFATYYCQGGYYSSSSTYIAFGTGTKVTVLG", "notes": "scFv (Full graft); also called 55-38-D07-sc02"}, "B2": {"name": "PRO2062 (scFv, V domains shown)", "VH": "QSQLVESGGGLVQPGGSLRLSCAVSGLSLSRNAMSWVRQAPGKGLEWIGIILTSGSTYYASWAKGRFTISKDNSKNTVYLQMNSLRAEDTAVYFCVRGIASSSLKSFWGQGTLVTVSS", "VL": "AQQLTQSPSSLSASVGDRVTITCQASQNVWNNNYLSWFQQKPGKPPKLLIVTASTLASGVSSRFSGSGSGTDFTLTISSLQPEDFATYYCAGGFSGEIRAFGTGTKVTVLG", "notes": "scFv (Full graft); also called 55-39-G02-sc02"}, "B3": {"name": "PRO2155 (scFv, V domains shown)", "VH": "EVQLVESGGGLVQPGGSLRLSCAASGFSLSSYAMNWVRQAPGKGLEWIGHINAGDIAYYATWAKGRFTISRDNSKNTVYLQMNSLRAEDTAVYFCARGAGGFSTGPFKLWGQGTLVTVSS", "VL": "AFELTQSPSSLSASVGDRVTITCQASESINSRLAWYQQKPGQPPKLLIYDASDLTSGVPSRFSGSGSGTDFTLTISSLQPEDFATYYCQGYGGSSTTTFGGGTKLTVLG", "notes": "scFv; also called 19-04-A10-sc02; anti-hSA scFv"}}, "key": {"[1]": {"target": "T1, human ROR1 expressed on cells (human, UniProt Q01973 30-937)", "T1 construct": "whole, on cells; One molecule for cell-surface ROR1 on all cell lines; the cell line is named under assay; also called hROR1; plasma membrane human ROR1", "assay": "flow cytometry, MDA-MB-231 cells; mean of three experiments"}, "[2]": {"target": "T2, recombinant human ROR1 protein (Fc-Tag, Acro Biosystems RO1-H5250) (human, UniProt Q01973 30-406)", "T2 construct": "Bought; also called hROR1; recombinant human ROR1 ECD; not shown: Fc tag", "assay": "SPR; hROR1-Fc immobilized"}, "[3]": {"target": "T2, recombinant human ROR1 protein (Fc-Tag, …)", "assay": "SPR; hROR1-Fc immobilized", "remark": "listed apart in the source"}, "[4]": {"target": "T1, human ROR1 expressed on cells", "assay": "flow cytometry, MDA-MB-231 cells; mean of two experiments"}, "[5]": {"target": "T3, human serum albumin (Sigma-Aldrich A3782) (human, UniProt P02768 25-609)", "T3 construct": "also called hSA; HSA", "assay": "SPR; hSA immobilized, pH 7.4"}, "[6]": {"target": "T4, cynomolgus monkey serum albumin (Molecular Innovations CYSA) (cynomolgus monkey)", "T4 construct": "also called cSA; CSA", "assay": "SPR; cSA immobilized, pH 5.5"}, "[7]": {"target": "T5, mouse serum albumin (Sigma-Aldrich A3559) (mouse, UniProt P07724 25-608)", "T5 construct": "also called mSA; MSA", "assay": "SPR; mSA immobilized, pH 7.4; biphasic binding corrected with bulk correction in 1:1 fit"}, "[8]": {"target": "T5, mouse serum albumin (Sigma-Aldrich …)", "assay": "SPR; mSA immobilized, pH 7.4"}, "[9]": {"target": "T5, mouse serum albumin (Sigma-Aldrich …)", "assay": "SPR; mSA immobilized, pH 5.5; biphasic binding corrected with bulk correction in 1:1 fit"}, "[10]": {"target": "T4, cynomolgus monkey serum albumin …", "assay": "SPR; cSA immobilized, pH 7.4"}, "[11]": {"target": "T3, human serum albumin (Sigma-Aldrich …)", "assay": "SPR; hSA immobilized, pH 5.5"}, "[12]": {"target": "T5, mouse serum albumin (Sigma-Aldrich …)", "assay": "SPR; mSA immobilized, pH 5.5"}}, "note": "Read-outs that look alike come from different tables or passages of the source."}
{"binder": "B1", "values": [{"measurement": "EC50", "setting": "[1]", "result": 2.93, "unit": "nM"}, {"measurement": "Kd", "setting": "[2]", "result": 0.416, "unit": "nM"}, {"measurement": "koff", "setting": "[2]", "result": "9.79e-05", "unit": "s⁻¹"}, {"measurement": "kon", "setting": "[2]", "result": 250000, "unit": "M⁻¹ s⁻¹"}, {"measurement": "Kd", "setting": "[3]", "result": 0.285, "unit": "nM"}, {"measurement": "koff", "setting": "[3]", "result": "9.56e-05", "unit": "s⁻¹"}, {"measurement": "kon", "setting": "[3]", "result": 335000, "unit": "M⁻¹ s⁻¹"}]}
{"binder": "B2", "values": [{"measurement": "EC50", "setting": "[4]", "result": 0.26, "unit": "nM"}, {"measurement": "Kd", "setting": "[2]", "result": 0.103, "unit": "nM"}, {"measurement": "koff", "setting": "[2]", "result": 0.000455, "unit": "s⁻¹"}, {"measurement": "kon", "setting": "[2]", "result": "4.45e+06", "unit": "M⁻¹ s⁻¹"}, {"measurement": "Kd", "setting": "[3]", "result": 0.0926, "unit": "nM"}, {"measurement": "koff", "setting": "[3]", "result": 0.00049, "unit": "s⁻¹"}, {"measurement": "kon", "setting": "[3]", "result": "5.29e+06", "unit": "M⁻¹ s⁻¹"}]}
{"binder": "B3", "values": [{"measurement": "Kd", "setting": "[5]", "result": 2.2, "unit": "nM"}, {"measurement": "koff", "setting": "[5]", "result": 0.0012, "unit": "s⁻¹"}, {"measurement": "kon", "setting": "[5]", "result": 550000, "unit": "M⁻¹ s⁻¹"}, {"measurement": "Kd", "setting": "[6]", "result": 2.3, "unit": "nM"}, {"measurement": "koff", "setting": "[6]", "result": 0.0021, "unit": "s⁻¹"}, {"measurement": "kon", "setting": "[6]", "result": 910000, "unit": "M⁻¹ s⁻¹"}, {"measurement": "Kd", "setting": "[7]", "result": 9, "unit": "nM"}, {"measurement": "koff", "setting": "[8]", "result": 0.00029, "unit": "s⁻¹"}, {"measurement": "kon", "setting": "[8]", "result": 32000, "unit": "M⁻¹ s⁻¹"}, {"measurement": "Kd", "setting": "[9]", "result": 2.5, "unit": "nM"}, {"measurement": "Kd", "setting": "[10]", "result": 1.6, "unit": "nM"}, {"measurement": "koff", "setting": "[10]", "result": 0.00091, "unit": "s⁻¹"}, {"measurement": "kon", "setting": "[10]", "result": 580000, "unit": "M⁻¹ s⁻¹"}, {"measurement": "Kd", "setting": "[11]", "result": 3.3, "unit": "nM"}, {"measurement": "koff", "setting": "[11]", "result": 0.003, "unit": "s⁻¹"}, {"measurement": "kon", "setting": "[11]", "result": 900000, "unit": "M⁻¹ s⁻¹"}, {"measurement": "koff", "setting": "[12]", "result": 0.0002, "unit": "s⁻¹"}, {"measurement": "kon", "setting": "[12]", "result": 78000, "unit": "M⁻¹ s⁻¹"}]}
